Values belong to the binder of their own block, whether it stands above or below them.
Tests used:
[1] = biological target: T1, αIIbs-YFP (transmembrane and intracellular portion, amino acids 987-1039, of the human integrin αIIb chain, … (human, UniProt P08514-1 987-1039)); test: FRET or BRET; acceptor photobleaching; HEK293 Phoenix cells; FRET efficiency in 4-5 plasma membrane ROIs of each cell; conditions: partners not purified
T1 construct: integrin αIIb chain, human, amino acids 987-1039 (transmembrane and intracellular portion); numbers count on NCBI NP_000410.2; The methods say 'YFP was fused to the Ct of ICln'; also called αIIb-short; αIIb short; source: NIH-3T3 fibroblasts or HEK293 Phoenix cells, transiently transfected (pEYFP-N1), in cells; not shown: YFP, C-terminal, kept
T1 sequence (P08514 987-1039): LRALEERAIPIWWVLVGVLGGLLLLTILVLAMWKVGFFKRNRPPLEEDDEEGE

[2] = biological target: T1, αIIbs-YFP (transmembrane and …); test: FRET or BRET; acceptor photobleaching; living NIH-3T3 fibroblasts in isotonic solution; CFP donor, YFP acceptor; FRET efficiency in three plasma membrane ROIs of each cell; conditions: partners not purified
[3] = biological target: T2, TcICln (truncated Canis familiaris ICln, ICln159X), N-terminal His6-tagged (Canis familiaris, UniProt P35521 1-158); test: NMR titration; 1H-15N HSQC of 15N-labelled ICln (0.8 mM) without and with the integrin peptide (equimolar amount for TcICln); 50 mM K2HPO4, pH 6.6, 90% H2O/10% D2O, 25 °C, 800 MHz; conditions: both partners purified
T2 construct: ICln, Canis familiaris, truncation mutant ICln159X lacking the C-terminal part (stop at position 159); pleckstrin homology domain-like fold; NCBI NP_001003288.1; Uniformly 15N-labelled; The last residue (158) is worked out from the name ICln159X; also called truncated form of cICln; source: E. coli BL21(DE3), purified (IMAC HisTrap, Superdex 75)
T2 sequence (looked up): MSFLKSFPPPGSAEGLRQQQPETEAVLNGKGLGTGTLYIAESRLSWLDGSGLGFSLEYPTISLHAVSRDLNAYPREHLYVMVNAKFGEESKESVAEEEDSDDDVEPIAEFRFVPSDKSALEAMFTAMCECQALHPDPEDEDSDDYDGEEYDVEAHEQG

ratio of the FRET efficiency to that of CFP and αIIbs-YFP [1]: 2.7 | ratio of the FRET efficiency to that of CFP and αIIbs-YFP [2]: 2.9
B1: CFP-ICln (Canis familiaris ICln, wild type, CFP fused to the N-terminus) (natural protein, UniProt P35521 1-235, looked up)
chain: MSFLKSFPPPGSAEGLRQQQPETEAVLNGKGLGTGTLYIAESRLSWLDGSGLGFSLEYPTISLHAVSRDLNAYPREHLYVMVNAKFGEESKESVAEEEDSDDDVEPIAEFRFVPSDKSALEAMFTAMCECQALHPDPEDEDSDDYDGEEYDVEAHEQGQGDIPTFYTYEEGLSHLTAEGQATLERLEGMLSQSVSSQYNMAGVRTEDSTRDYEDGMEVDTTPTVAGQFEDADVDH
notes: ICln, Canis familiaris (cDNA from the MDCK cell line), ORF of full length ICln; NCBI NP_001003288.1; The same construct was used in two cell lines (NIH-3T3 and HEK293 Phoenix); the assays tell them apart; also called CFP-ICln wt; cICln; source: NIH-3T3 fibroblasts or HEK293 Phoenix cells, transiently transfected (pECFP-C1), in cells; not shown: CFP, N-terminal, kept

binding result [3]: binds
B2: integrin peptide (1018)MWKVGFFKRNR(1028) (peptide)
peptide: MWKVGFFKRNR
notes: integrin αIIb chain, human, residues 1018-1028; numbers count on NCBI NP_000410.2; also called integrin αIIb peptide with the KVGFFKR motif; source: synthetic peptide
